Measured values from article PMC9167300, “The LCK-14-3-3ζ-TRPM8 axis regulates TRPM8 function/assembly and promotes pancreatic cancer malignancy” (Cell Death & Disease, 2022).

Target: T1, His-LCK fusion (human, UniProt P06239 1-509)
T1 construct: human LCK cDNA subcloned into pET28a(+); also called His-fused LCK; source: E. coli BL21, purified (Ni-NTA agarose)
Experiment: pull-down; protein-protein interaction assay in vitro: 150 μg His-LCK eluted from Ni-NTA incubated with GST or GST-M8C bound to GST-agarose beads, 1 h at room temperature; Western blot
Settings: both partners purified

T1 sequence (P06239 whole entry, the tested form may be a part): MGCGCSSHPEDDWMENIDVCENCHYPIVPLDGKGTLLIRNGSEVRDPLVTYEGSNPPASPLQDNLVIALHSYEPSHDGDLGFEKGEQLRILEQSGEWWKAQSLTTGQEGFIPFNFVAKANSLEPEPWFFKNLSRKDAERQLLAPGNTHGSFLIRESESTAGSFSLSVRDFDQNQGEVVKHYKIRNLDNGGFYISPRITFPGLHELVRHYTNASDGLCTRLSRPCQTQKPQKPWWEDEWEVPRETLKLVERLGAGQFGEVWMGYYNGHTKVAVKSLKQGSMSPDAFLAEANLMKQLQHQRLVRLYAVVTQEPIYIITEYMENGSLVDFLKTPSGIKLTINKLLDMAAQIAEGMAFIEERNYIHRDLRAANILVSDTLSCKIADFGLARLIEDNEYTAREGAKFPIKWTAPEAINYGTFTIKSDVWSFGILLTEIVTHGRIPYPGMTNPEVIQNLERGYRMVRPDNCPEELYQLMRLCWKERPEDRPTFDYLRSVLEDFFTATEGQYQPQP

- binding result: binds
B1: GST-tagged C-terminus of TRPM8 (GST-M8C) (domain or fragment, rat, UniProt Q8R455 980-1104, looked up)
chain: GYTVGIVQENNDQVWKFQRYFLVQEYCNRLNIPFPFVVFAYFYMVVKKCFKCCCKEKNTESSACCFRNEDNETLAWEGVMKENYLVKINTKANDNAEEMRHRFRQLDTKLNDLKGLLKEIANKIK
notes: C-terminus of rat TRPM8 (M8C), amino acids 980-1104, in pGEX-4T-1; source: E. coli BL21, purified (glutathione beads)
